{"source": "patent US20170096478A1", "about": "“THERAPEUTIC AGENT FOR INFLAMMATORY DISEASE” (Josai University Corporation, priority 2012, published 2017)", "molecules": {"B1": {"name": "SSV mAb: monoclonal antibody (IgG1) produced by Mouse-Mouse hybridoma SSV-C 93-3 (NITE BP-972), raised against peptide … (SEQ ID NO:1)-KLH conjugate (antibody, V domains shown)", "VH": "EIQLQQSGAELVKPGASVKISCKASGYSFTGYNMNWVKQSHGKSLEWIGNINPYYGSTSYNQKFKGKATLTVDKSSSTAYMQLNSLTSEDSAVYYCARSPYYSNYWRYFDYWGQGTTLTVSS", "VL": "QIVLSQSPAILSASPGEKVTMTCRASSSVSYMHWYQQKPGSSPKPWIYATSNLASGVPARFSGSGSGTSYSLTISRVEAEDAATYYCQQWSSNPWTFGGGTKLEIK"}}, "key": {"[1]": {"system": "spleen lymphocytes from a naive DA rat (responsive cells) and from a LEW rat (stimulated cells)", "experiment": "MLR tests (mixed lymphocyte reaction, BrdU incorporation)", "assay_type": "cell-based", "experimental": "Spleen lymphocytes from a naive DA rat (responsive cells) and spleen lymphocytes from a LEW rat treated with mitomycin-C (Kyowa Hakko Kogyo Co., Ltd.) (stimulated cells) were used. The responsive cells were adjusted to 5×10^5 cells/mL with 10% FCS-RPMI culture medium, and the stimulated cells were adjusted to 8×10^6 cells/mL with 10% FCS-RPMI culture medium. After plating the responsive cell suspension and the stimulated cell suspension in an amount of 100 μL to a 96 well round-bottom plate (Nunc Brand Products) respectively, the monoclonal antibody 16G9mAb of Reference Example 1 (0.1, 2, 4, or 6 μg/mL/well) or the monoclonal antibody SSVmAb of Example 1 (4 μg/mL/well) was added at the start of mixed culture, and cultured for 3.5 days or longer under the conditions of 37° C., 5% CO2/95% air. In addition, an immunosuppressive agent tacrolimus (FK506: Fujisawa Pharmaceutical Co., Ltd., 1 nM/well) was added as a positive control. Further, 10 μL bromo deoxyuridine (BrdU) was added 15 hours before the end of culture. Then the proliferation potential of the cells treated with the immunosuppressive agent was measured using BrdU labeling & detection kit III (Roche Diagnostics K.K.) using the amount of BrdU incorporated into cellular DNA as an indicator."}, "[2]": {"system": "CD3 positive T cells", "experiment": "Reactivity of the monoclonal antibody with T cells by flow cytometry (FACS)", "assay_type": "cell-based, C57BL/6 mouse", "conditions": "unstimulated T cells, 16G9 mAb compared with SSV mAb", "experimental": "Using the following approach, spleen was removed from a C57BL/6 mouse (5 weeks old, female, CHARLES RIVER LABORATORIES JAPAN, INC.) to prepare whole splenic cells.\nFirst, in a 5 ml culture dish (BD Bioscience FALCON 351007) into which 5 ml RPMI 1640 culture medium (Sigma-Aldrich, R-8758) was transferred, spleen was disentangled well with scissors for dissection and forceps to suspend the splenic cells, which were then transferred to a 15 ml centrifuge tube (BD Bioscience FALCON 352096). Then, the 5 ml dish was washed several times with phosphate-buffered saline (PBS, Invitrogen, 20012-027), and these were also added to the foregoing cell suspension and allowed to stand, and then the supernatant was collected in another 15 ml centrifuge tube. In addition, 5 ml RPMI 1640 culture medium was also added to the residual insoluble spleen tissue again and allowed to stand, and then only the supernatant was collected, which was combined with the above-mentioned cell suspension to perform centrifugation at 1,500 rpm for 5 min. To the collected cells, added was 2 ml lysis buffer (150 mM NH4Cl/15 mM NaHCO3/0.1 mM EDTA-Na2, pH 7.3) and hemolyzed by tapping, and then 10 ml PBS was added. After washed 3 times by centrifugation at 1,500 rpm for 5 min, whole splenic cells were obtained. […]\nThe reactivity of the above unstimulated with 16G9 mAb or SSV mAb was analyzed by flow cytometry (FACS). […]"}, "[3]": {"system": "lipopolysaccharide (LPS)-induced lethal sepsis", "experiment": "Test Example 8-3: staining test of lung tissue", "assay_type": "in vivo, BALB/c mice", "conditions": "after the end of Test Example 8", "experimental": "BALB/c mice (bodyweight of 20 g to 30 g when starting the experiments, n=10) were raised in a plastic cage under SPF and thermo-hydrostat (22±1° C., 55±5%) conditions under 12-hour light-dark cycle. Foods and water were supplied ad libitum. Then, by intraperitoneally administering LPS to the mice at a dose of 40 mg/kg, lipopolysaccharide (LPS)-induced lethal sepsis as an inflammatory disease was induced in the same manner as Test Example 7. SSV mAb dissolved in physiological saline was intraperitoneally administered totally 3 times, i.e., at 30 minutes before, 6 hours after and 12 hours after the intraperitoneal administration of LPS, in an amount of 100 μg/dose in terms of the amount of SSV mAb. The survival of the animals thereafter was tested. To the control group, IgG (SIGMA) dissolved in physiological saline was administered in place of SSV mAb in the same manner.\nAfter the end of Test Example 8, lung tissue sections were each obtained from […] of control group and SSV mAb-administered group, and stained by using hematoxylin and eosin stain (from Wako Pure Chemical Industries, Ltd.) according to the method conducted by Hasegawa et al. (Surg Res. 2012 May 1; 174(1):136-41.). Next, micrographs of the obtained samples were taken.\nAs a reference, micrographs of lung tissue slices from healthy rats were taken in the same manner."}}, "data": [{"molecule": "B1", "values": [{"measurement": "absorbance which indicates the amount of incorporated BrdU", "setting": "[1]; 4 μg/mL/well, mean±S.E.", "value": "0.552±0.114"}, {"measurement": "absorbance (incorporated BrdU) compared with Reference Example 1 (16G9mAb) and tacrolimus (FK506)", "setting": "[1]; SSVmAb 4 μg/mL/well, FK506 1 nM/well", "value": "lower"}, {"measurement": "mean absorbance of Example 1 relative to that of Reference Example 1", "setting": "[1]; same amount added, 4 μg/mL/well", "value": "about 41%"}, {"measurement": "reactivity with CD3 positive T cells", "setting": "[2]", "value": "comparative reactivity"}, {"measurement": "inflammation in lungs (hematoxylin and eosin stained lung tissue sections)", "setting": "[3]", "value": "not observed"}]}]}
